Measurements from patent publication US20210155682A1, “COMPOSITIONS AND METHODS FOR REDUCTION OF LIPOPROTEIN A FORMATION AND TREATMENT OF AORTIC VALVE SCLEROSIS AND AORTIC STENOSIS” (Abcentra, LLC, priority 2018, published 2021).
“Also recorded” adds a separate entry of the source.

What was measured:
[1] = target: purified human LDL, carrying apolipoprotein B100 (human) (UniProt P04114); assay: Western blot of covalent assembly of 5 nM 17K r-apo(a) with 100 nM LDL, 8 h
[2] = target: purified human LDL, carrying apolipoprotein B100 (human) (UniProt P04114); assay: Western blot of covalent assembly of 5 nM 17K r-apo(a) with 100 nM LDL, 8 h, 10 µM orticumab
[3] = target: purified human LDL, carrying apolipoprotein B100 (human) (UniProt P04114); assay: Western blot of covalent assembly of 5 nM 17K r-apo(a) with 100 nM LDL, 8 h, 0.1 µM orticumab
[4] = target: purified human LDL, carrying apolipoprotein B100 (human) (UniProt P04114); assay: Western blot of covalent assembly of 5 nM 17K r-apo(a) with 100 nM LDL, 8 h, orticumab at '1' (unit missing, by context 1 µM)
[5] = target: T1, non-covalent binding between apo(a) and LDL (Homo sapiens, UniProt P04114); assay: Fluorescence assay of non-covalent binding: quenching of Flu-LDL by 17K r-apo(a)
T1 construct: made in house; host or cells: apo(a): stably-expressing HEK293 cell lines; LDL: plasma of a healthy donor
T1 sequence (P04114 28-4563): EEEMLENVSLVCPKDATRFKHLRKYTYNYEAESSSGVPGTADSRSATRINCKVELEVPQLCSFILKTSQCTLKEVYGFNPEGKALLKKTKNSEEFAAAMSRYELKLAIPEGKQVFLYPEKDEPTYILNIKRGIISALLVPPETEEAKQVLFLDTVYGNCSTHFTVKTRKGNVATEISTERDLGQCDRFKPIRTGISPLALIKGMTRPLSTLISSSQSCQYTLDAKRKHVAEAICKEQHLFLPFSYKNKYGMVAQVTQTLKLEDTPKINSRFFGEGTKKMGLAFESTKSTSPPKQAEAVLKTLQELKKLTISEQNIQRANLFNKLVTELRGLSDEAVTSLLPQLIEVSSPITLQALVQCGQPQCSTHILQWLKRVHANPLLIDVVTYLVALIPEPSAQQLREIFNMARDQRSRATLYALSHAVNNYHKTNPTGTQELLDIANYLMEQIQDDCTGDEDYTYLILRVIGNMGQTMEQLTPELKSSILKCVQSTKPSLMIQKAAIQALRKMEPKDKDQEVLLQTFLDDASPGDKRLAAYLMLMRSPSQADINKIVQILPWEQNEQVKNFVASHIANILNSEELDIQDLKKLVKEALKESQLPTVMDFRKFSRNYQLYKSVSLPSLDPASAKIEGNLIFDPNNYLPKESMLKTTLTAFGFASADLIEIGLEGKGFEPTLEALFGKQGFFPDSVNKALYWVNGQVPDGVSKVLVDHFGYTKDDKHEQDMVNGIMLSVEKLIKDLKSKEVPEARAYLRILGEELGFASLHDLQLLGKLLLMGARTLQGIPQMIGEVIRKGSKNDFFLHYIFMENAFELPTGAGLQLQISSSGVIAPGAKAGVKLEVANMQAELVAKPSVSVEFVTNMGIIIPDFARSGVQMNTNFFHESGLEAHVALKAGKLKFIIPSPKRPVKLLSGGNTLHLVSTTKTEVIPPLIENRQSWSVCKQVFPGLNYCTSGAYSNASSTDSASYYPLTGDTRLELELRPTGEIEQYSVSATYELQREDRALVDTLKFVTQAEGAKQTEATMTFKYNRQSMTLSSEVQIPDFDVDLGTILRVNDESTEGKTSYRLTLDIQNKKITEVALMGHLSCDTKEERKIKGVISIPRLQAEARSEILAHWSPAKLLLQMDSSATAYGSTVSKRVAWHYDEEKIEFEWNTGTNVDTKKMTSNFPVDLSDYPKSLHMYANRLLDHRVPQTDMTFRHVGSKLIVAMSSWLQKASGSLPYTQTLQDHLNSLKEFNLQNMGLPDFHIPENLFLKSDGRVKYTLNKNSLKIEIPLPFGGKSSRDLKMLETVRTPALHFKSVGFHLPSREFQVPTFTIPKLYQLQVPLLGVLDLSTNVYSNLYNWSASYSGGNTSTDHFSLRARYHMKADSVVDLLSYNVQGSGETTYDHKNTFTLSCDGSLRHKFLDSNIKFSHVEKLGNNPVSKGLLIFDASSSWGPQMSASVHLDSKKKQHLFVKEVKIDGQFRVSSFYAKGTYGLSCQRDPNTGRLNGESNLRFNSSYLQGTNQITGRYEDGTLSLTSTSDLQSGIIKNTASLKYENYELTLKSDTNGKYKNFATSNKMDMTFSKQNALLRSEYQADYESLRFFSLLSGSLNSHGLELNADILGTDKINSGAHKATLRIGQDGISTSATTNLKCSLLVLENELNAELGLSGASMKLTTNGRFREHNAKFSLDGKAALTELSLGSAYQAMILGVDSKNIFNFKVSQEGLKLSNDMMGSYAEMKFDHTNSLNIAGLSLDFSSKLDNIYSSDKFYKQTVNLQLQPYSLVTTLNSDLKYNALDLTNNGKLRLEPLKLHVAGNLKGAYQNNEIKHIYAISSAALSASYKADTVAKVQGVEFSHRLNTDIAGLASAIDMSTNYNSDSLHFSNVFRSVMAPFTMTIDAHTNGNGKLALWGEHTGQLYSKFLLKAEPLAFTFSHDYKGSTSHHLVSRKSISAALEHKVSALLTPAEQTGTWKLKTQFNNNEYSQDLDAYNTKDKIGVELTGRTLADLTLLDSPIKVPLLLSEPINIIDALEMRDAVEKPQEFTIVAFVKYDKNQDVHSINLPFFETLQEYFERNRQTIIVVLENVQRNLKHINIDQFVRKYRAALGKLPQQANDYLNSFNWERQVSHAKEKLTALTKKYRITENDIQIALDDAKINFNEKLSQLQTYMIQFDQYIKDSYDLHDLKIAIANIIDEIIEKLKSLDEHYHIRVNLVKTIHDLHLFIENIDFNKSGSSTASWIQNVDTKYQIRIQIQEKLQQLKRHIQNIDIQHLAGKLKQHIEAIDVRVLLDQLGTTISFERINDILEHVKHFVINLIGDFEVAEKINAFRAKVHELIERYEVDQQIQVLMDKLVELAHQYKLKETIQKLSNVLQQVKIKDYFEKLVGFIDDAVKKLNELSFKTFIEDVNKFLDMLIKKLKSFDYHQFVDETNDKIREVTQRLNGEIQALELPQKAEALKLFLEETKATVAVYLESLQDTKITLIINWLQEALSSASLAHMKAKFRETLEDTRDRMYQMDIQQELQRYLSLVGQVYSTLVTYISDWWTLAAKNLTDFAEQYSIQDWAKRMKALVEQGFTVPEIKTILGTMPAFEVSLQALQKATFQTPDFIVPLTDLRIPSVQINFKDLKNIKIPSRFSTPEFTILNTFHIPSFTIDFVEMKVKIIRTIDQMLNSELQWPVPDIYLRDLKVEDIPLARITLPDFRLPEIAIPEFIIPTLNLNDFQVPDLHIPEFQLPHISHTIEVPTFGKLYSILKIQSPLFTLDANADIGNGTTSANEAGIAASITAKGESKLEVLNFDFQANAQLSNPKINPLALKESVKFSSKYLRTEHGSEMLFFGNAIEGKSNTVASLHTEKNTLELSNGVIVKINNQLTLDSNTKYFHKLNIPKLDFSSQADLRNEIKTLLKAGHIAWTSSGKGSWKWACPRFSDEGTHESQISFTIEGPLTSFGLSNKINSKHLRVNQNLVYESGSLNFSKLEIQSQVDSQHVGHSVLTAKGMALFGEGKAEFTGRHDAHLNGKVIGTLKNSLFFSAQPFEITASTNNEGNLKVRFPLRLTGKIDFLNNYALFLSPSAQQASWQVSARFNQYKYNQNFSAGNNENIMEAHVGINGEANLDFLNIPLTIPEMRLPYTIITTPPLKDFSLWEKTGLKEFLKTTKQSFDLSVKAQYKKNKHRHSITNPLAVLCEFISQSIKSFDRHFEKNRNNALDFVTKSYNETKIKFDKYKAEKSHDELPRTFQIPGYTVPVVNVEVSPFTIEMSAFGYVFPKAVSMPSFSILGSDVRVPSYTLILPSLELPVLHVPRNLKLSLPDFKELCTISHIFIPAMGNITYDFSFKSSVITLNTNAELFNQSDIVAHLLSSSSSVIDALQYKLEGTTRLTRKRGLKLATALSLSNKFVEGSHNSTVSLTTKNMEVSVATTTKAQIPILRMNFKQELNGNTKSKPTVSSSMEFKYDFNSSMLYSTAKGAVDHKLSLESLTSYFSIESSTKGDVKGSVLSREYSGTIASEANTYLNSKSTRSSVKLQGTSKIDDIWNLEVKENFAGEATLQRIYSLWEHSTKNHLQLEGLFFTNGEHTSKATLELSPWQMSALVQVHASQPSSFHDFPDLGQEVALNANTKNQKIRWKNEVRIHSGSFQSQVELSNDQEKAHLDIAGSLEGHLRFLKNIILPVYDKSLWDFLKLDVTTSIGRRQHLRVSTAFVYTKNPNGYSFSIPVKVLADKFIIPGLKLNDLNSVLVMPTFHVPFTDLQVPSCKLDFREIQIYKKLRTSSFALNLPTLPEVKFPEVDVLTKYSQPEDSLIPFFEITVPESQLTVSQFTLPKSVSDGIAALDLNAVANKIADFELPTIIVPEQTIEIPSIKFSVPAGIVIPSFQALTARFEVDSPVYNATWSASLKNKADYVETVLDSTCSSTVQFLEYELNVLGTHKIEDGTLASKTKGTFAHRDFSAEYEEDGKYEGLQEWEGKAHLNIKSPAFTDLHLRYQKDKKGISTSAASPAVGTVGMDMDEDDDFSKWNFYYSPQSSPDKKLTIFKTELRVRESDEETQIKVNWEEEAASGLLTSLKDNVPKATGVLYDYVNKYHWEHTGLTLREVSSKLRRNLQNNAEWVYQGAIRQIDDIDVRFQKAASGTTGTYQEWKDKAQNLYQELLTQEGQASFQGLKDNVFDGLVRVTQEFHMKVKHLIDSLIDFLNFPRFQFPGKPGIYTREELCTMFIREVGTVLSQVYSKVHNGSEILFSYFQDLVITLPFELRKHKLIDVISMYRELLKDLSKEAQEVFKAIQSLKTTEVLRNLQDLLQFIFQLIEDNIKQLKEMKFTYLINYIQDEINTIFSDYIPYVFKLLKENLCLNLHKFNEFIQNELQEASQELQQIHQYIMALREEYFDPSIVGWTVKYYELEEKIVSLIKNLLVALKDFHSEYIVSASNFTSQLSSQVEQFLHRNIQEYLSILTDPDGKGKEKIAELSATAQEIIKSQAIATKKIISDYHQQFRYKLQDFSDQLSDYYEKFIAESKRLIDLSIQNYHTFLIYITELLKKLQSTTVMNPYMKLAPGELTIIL

[6] = target: T2, covalent binding between apo(a) and LDL (Lp(a) formation) (Homo sapiens, UniProt P04114); assay: Covalent Lp(a) assembly assay, Western blot (% r-Lp(a)); assay type: biochemical; conditions: for percent inhibition of Lp(a) formation: FIG. 10; for Reduction of covalent Lp(a) compared with control antibodies: 4 hours, orticumab 0.01-10 μM, FIG. 8
T2 construct: made in house; host or cells: apo(a): stably-expressing HEK293 cell lines; LDL: plasma of a healthy donor
T2 sequence (P04114 28-4563): as above
Experimental: Purified LDL (100 nM) and 17K apo(a) (5 nM) were incubated with conditioned serum-free medium (OptiMEM; Gibco) from HEK293 cells in the presence of 0, 0.01, 0.1, 1.0, and 10 μM of orticumab at 37° C. The reactions were mixed thoroughly every hour and stopped after 4 or 8 hrs by adding 4×SDS-PAGE sample buffer. Samples were then boiled for 5 min at 95° C. and subjected to SDS-PAGE on 6% polyacrylamide gel. After electrophoresis, separated proteins were electroblotted onto a PVDF membrane, blocked, and incubated with a monoclonal antibody (A5) specific for apo(a). HRP-conjugated goat anti-mouse IgG secondary antibody was used to develop a signal in the presence of a chemiluminescence reagent and images were captured using a ChemiDoc system (Bio-Rad). Band intensity (BI) of western-blots were quantified using IMAGELAB software for recombinant Lp(a) formation using the following equation: % r-Lp(a)=BI(Lp(a))/[BI(Lp(a))+BI(apo(a))]. A Two-Way ANOVA with Tukey post-hoc test was used to analyze the data in GraphPad Prism 7.0.
Covalent binding between apo(a) and LDL was assessed over time by appearance of Lp(a) protein on a Western blot. Using serum-free HEK293 cell-conditioned medium, Lp(a) formation was evaluated after incubation of 17K r-apo(a) with LDL from 0-8 hours; isolated Lp(a), 17K apo(a) alone, and media alone were used as controls.
Next, the effect of orticumab on inhibition of covalent binding between apo(a) and LDL was assessed by Western blot analysis. 17K r-apo(a) (5 nM) was incubated with LDL (100 nM) in serum free HEK293 cell-conditioned medium for 4 hours at 37° C. in the presence of orticumab at 0.1, 1, 5, and 10 μM.
To determine whether inhibition of Lp(a) formation occurs at a later time point when Lp(a) formation appears to be maximal, the Western blot experiments were repeated after a 0- and 8-hour incubation of 5 nM 17K r-apo(a) and 100 nM LDL in the presence of orticumab at 0.01, 0.1, 1, and 10 μM in serum free HEK293 cell-conditioned medium (FIG. 9). The results were then quantified (FIG. 10) and analyzed.

Flu-LDL = target: T3, Flu-LDL (Homo sapiens, UniProt P04114); assay: Antibody interference with Flu-LDL fluorescence (Flu-LDL alone); conditions: Flu-LDL 100 nM; orticumab 0.1-1000 nM; FIG. 5
T3 construct: from tissue; host or cells: plasma of a healthy donor
T3 sequence (P04114 28-4563): as above

Sequence of purified human LDL, carrying apolipoprotein B100 (human) (P04114 28-4563): as above

Substance	percent inhibition of Lp(a) formation [1]	percent inhibition of Lp(a) formation [2]	percent inhibition of Lp(a) formation [3]	percent inhibition of Lp(a) formation [4]	Concentration at which the antibody interfered with fluorescence ([5]; Flu-LDL 30 nM, 17K r-apo(a) 300 nM, FIG. 4A)	Concentration of maximum response in dose-response titration ([5]; de-quenching of Flu-LDL fluorescence, FIG. 3)	Inhibition of non-covalent binding between apo(a) and LDL, overall statement ([5]; fluorescence assay, summary of Example 3)	Alleviation of quenching of Flu-LDL by 17K apo(a), antibody titration ([5]; orticumab 0-1000 nM, Flu-LDL 50 nM, 17K r-apo(a) 500 nM, FIG. 3)	Inhibition of non-covalent apo(a)/Flu-LDL binding in 17K apo(a) titration ([5]; orticumab 1000 nM, Flu-LDL 50 nM, 17K r-apo(a) 0-1000 nM, FIG. 2)	De-quenching of Flu-LDL fluorescence at lower concentrations ([5]; orticumab 0.4096-100 nM, Flu-LDL 30 nM, 17K r-apo(a) 300 nM, FIG. 4A)	percent inhibition of Lp(a) formation ([6]; 0.01 μM orticumab, 8-hour incubation, 17K r-apo(a) 5 nM, LDL 100 nM)	percent inhibition of Lp(a) formation ([6]; 0.1 μM orticumab, 8-hour incubation, 17K r-apo(a) 5 nM, LDL 100 nM)	percent inhibition of Lp(a) formation ([6]; 10 μM orticumab, 8-hour incubation, 17K r-apo(a) 5 nM, LDL 100 nM)	Lp(a) band on Western blot ([6]; 10 μM orticumab, 4 hours at 37° C., 17K r-apo(a) 5 nM, LDL 100 nM, FIG. 7)	Inhibition of Lp(a) formation, in words ([6]; 8-hour incubation, orticumab 0.01, 0.1, 1 and 10 μM, FIG. 9, 10)	Reduction of covalent Lp(a) compared with control antibodies ([6]; 17K r-apo(a) 5 nM, LDL 100 nM)	Reduction of covalent Lp(a) compared with control antibodies ([6]; 17K r-apo(a) 5 nM, LDL 100 nM, listed as Orticumab)	Inhibition of covalent binding between apo(a) and LDL, overall statement ([6]; orticumab 0.01, 0.1, 1 and 10 μM, Western blot)	percent inhibition of Lp(a) formation ([6]; orticumab "At 1" (unit not given), 8-hour incubation, 17K r-apo(a) 5 nM, LDL 100 nM)	Effect on fluorescence of Flu-LDL alone (Flu-LDL)
orticumab (antibody)	21.4%	73.5%	25.8%	35%																
orticumab: human monoclonal antibody against apoB100 epitope P45 (residues 661-680); heavy chain SEQ ID No: 10, light chain SEQ ID No: 11					≤ 0.4 nM	1000 nM	very effective in inhibiting non-covalent binding	able to alleviate the quenching; also recorded: much lower than that of the polyclonal anti-apoB antibody or EACA	inhibited the binding; also recorded: on par with the anti-apo(a) antibody; also recorded: interfered with the apo(a) and Flu-LDL interaction	not able to de-quench; also recorded: no effect on de-quenching the fluorescence	21.37%	25.8%	73.46%	Disappearance of the Lp(a) band	significantly inhibited Lp(a) formation; also recorded: decreased Lp(a) covalent assembly at the lowest concentration tested	behaves similarly in reducing covalent Lp(a)	as effective as the anti-apoB or anti-apo(a) control antibodies	inhibited	34.99%	increased the fluorescence of Flu-LDL to a higher level; also recorded: enhanced fluorescent signal
